Legend:
[1] = biological target: ZIKV E protein expressed from pcDNA3.1+_19CprME-Zika (with prM); test: co-immunoprecipitation (GFP trap beads), western blot band quantitation; conditions: HEK293T/17 cells, 48 h post transfection; parent: est. 1.0; read off a plot
[2] = biological target: ATF6 (activating transcription factor 6), endogenous (UniProt P18850); test: as above; conditions: HEK293T/17 cells, 48 h post transfection; parent: est. 1.0; read off a plot
Chain of ATF6 (activating transcription factor 6), endogenous (P18850 whole entry): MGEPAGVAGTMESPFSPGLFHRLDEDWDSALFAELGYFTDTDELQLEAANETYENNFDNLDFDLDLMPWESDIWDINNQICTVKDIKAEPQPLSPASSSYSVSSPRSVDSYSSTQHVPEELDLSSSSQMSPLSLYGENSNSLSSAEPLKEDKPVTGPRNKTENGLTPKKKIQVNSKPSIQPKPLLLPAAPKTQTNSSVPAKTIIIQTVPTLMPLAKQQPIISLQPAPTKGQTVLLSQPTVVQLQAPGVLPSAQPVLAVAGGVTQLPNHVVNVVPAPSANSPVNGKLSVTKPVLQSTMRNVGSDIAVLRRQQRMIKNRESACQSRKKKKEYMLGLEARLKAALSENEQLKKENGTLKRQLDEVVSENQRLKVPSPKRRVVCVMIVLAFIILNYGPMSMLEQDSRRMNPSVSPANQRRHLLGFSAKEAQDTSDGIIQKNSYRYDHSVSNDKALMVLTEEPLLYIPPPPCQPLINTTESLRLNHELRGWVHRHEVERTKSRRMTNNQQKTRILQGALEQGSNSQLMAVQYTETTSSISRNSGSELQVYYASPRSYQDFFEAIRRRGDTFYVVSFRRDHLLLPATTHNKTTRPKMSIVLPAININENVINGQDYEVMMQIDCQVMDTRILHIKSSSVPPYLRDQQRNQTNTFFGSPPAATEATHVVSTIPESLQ

Chain of EGFP-full length GRP78 (wild type), P11021 K621A (P11021 19-654 K621A): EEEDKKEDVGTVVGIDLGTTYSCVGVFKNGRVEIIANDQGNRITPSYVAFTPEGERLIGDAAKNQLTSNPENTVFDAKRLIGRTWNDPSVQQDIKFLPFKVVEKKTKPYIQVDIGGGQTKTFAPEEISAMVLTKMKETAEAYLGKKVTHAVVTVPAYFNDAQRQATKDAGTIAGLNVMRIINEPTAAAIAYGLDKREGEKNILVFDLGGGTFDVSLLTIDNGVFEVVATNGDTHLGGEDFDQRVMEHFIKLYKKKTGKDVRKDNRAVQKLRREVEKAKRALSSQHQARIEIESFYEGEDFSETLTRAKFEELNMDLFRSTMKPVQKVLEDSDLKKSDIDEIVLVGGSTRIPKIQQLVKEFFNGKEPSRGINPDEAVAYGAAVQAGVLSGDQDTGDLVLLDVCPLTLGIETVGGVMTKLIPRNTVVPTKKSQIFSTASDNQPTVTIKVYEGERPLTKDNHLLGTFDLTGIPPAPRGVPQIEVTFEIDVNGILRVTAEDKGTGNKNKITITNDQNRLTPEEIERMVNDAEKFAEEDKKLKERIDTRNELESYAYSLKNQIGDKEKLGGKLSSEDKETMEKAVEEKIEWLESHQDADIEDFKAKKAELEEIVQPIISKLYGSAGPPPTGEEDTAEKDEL
Chain of EGFP-full length GRP78 (wild type), P11021 V429Q (P11021 19-654 V429Q): as the sequence (P11021 19-654 K621A) above, with V411Q, A603K counted along it
Chain of EGFP-full length GRP78 (wild type), P11021 R470E (P11021 19-654 R470E): as the sequence (P11021 19-654 K621A) above, with R452E, A603K counted along it
Chain of EGFP-full length GRP78 (wild type), P11021 T518A (P11021 19-654 T518A): as the sequence (P11021 19-654 K621A) above, with T500A, A603K counted along it
Chain of EGFP-full length GRP78 (wild type), P11021 R492E (P11021 19-654 R492E): as the sequence (P11021 19-654 K621A) above, with R474E, A603K counted along it
Chain of EGFP-full length GRP78 (wild type), P11021 K585A (P11021 19-654 K585A): as the sequence (P11021 19-654 K621A) above, with K567A, A603K counted along it

Substance | ratio to parent [1] | ratio to parent [2]
EGFP-full length GRP78 (wild type) (from UniProt P11021) T518A | 0.42 | –
EGFP-full length GRP78 (wild type), P11021 R470E | – | 0.95
EGFP-full length GRP78 (wild type) (from UniProt P11021) V429Q | 1.1 | –
EGFP-full length GRP78 (wild type), P11021 T518A | – | 0.4
EGFP-full length GRP78 (wild type) (from UniProt P11021) K621A | 0.72 | –
EGFP-full length GRP78 (wild type) (from UniProt P11021) H477E | 1.3 | –
EGFP-full length GRP78 (wild type), P11021 K621A | – | 0.82
EGFP-full length GRP78 (wild type) (from UniProt P11021) K585A | 1 | –
EGFP-full length GRP78 (wild type), P11021 V429Q | – | 0.98
EGFP-full length GRP78 (wild type) (from UniProt P11021) R492E | 0.47 | –
EGFP-full length GRP78 (wild type), P11021 R492E | – | 0.28
EGFP-full length GRP78 (wild type), P11021 K585A | – | 0.82

Reference: article PMC11074156
